Experiment: soluble on expression in E. coli; label from the status in PepcDB or PDB records
For “MSLHPASANLSPSSVKNCSAKTFGFLILPNFTTIGLASAVETLRMANLAARKPLYRSVLIAADDAPVVASNGMRVLPDYNITNAPALDALLVVGANPIDRSRSNRPLIDWLRQLARQRLPLGGICTGSYLLAKAELLKGYRCTIHWEDLPTLQAHFPGIVISSQLFELDRDRYTCSGGVAAMDMMLQLVARDTGGQDIAAKAAELLLCDRVRGEREGHHHHHH”, the “soluble on expression in E. coli” value was “soluble”. For “MSLGGSAMYHAQLGREYHEKALKYRSLAMRSLAHSGTSHSLDLHGATVREAKTIVRERVAAWWAKEADTSPNSIRPFVIVTGRGNHSIGLEARLLPAIVRLLQQDHWRFDAEHGQITVYGINRHSKEGHHHHHH”, the “soluble on expression in E. coli” value was “soluble”. With “MAHHHHHHMGDHLGSRFTVIEQIGSGNYGSLYRVIDGEAATLADRIIATKKLQDTINHPHVLREVSAQRHAQKCSPHIVKLLHVVPRDRVRAALVLEYVPLDLRTFLNAFYCNQAKSSAPTWCATAGADELKSAAAPPCHIPLIYVRRMLRGLIEALHCLHARGIAHRDVKPENILVEPLGLGHPLRCVCPPMGSFGPAGEAAGCWVHAPHCPDPRQEERGVTRPMQPQGTLEPCQFFRRYSVALHHELTGDELASAIHRLHCETCRPCPCARAGAGKHAPQQHRDSSEMKTGNSCAQERQADAVDEESPANVDDGEADKLTAPMSPPLMPDVKLCDFGSARHIGTLRLRSAEEQREELTPGPTTPVYCAPEMMLLQRYGTSVDMWAVGAILFEMLTGEFFLGVGTLRSFSGDVVVRDDYCVMHRLNRMFRHLGTPSVEEWRCIAHPHYYPDEMLAHLPQVRDAALFRCLAQPIDTDGSFRRDSGDIKSNGDAKTADVQTDLNVRPSAGTCSCAQAPVNGTTDSHAARASAPPRDATAARHPLNVSDFLYQHIGESGVDFLRSLLRYDPAKRMTSAEALRHPFLSPEVANM” the “soluble on expression in E. coli” value was “not soluble”. In the case of “MKIIILHGLYMHGLVMQPLSQKLRKLGYETQVLSYNTVAIDESSLFDSIDHSLNPLTANVLVGHSLGGLMIKRYLANRKPTTSLISHVVAIGSPLKGASIVGRIQDLGLGAILGNSPHHGLNKHHDAWAFPQKLGSIAGTVPIGARPLLIRNDNTMSDGTVTVEETRLDGMQDHIEVKQTHTSLIYNTFVPQQIDHFIRTDYFCR”, the “soluble on expression in E. coli” value was “not soluble”. In the case of “MSLSNAVRITALHTRLARIPLPRPLKTSIHEIADVCCLLVSLETDAGVTGEGYGFCFNADRLGAIAQFTQSLAPLVVGRDPHDVEALWTDFLRGCNFYGQSGVSILAYNPIDIACWDIVGKLAGRPLYKLFGAHRERVPVYASAGLWLSSSRDELRDEARQFLAQGFKAMKMRLGSPDWKEDIARVEVVRDAIGEQVTLMADANQGLDLTRALRLGRELARFDLAWFEEPVPTWDDDSAAEIVRRLPMPIASGETEYTRYGIRRMARERAAGVFMPDLQRMGGYTEMLKAVRYLAAHDLPVAPHIFTEHSLHIVAAAGNATWAEHMPWFEPLFHERMEIGADGCIAAPDRPGTGFTFDWQRIDPYLISPRTAGGSEGHHHHHH”, the “soluble on expression in E. coli” value was “soluble”. With “MMTQTLLIELLTEELPPKALNNLGNHFAASVAEGLEKAQLVDGAAEFTAYASPRRLAVQVKNVKAVQADQKIVKKGPAVANAMKDGAPTKALEGFARGAGAKIEDLTIVHDGKQDVYAYEYVQIGKPLGGLLEDIINQAVKKLPIPKVMRWGSSTFTFVRPVHGLVVLHGGDIVNVSVLGLQSGNKTLGHRFLSDGEITIENADSYAAQMREQGKVVASFAERKAAIQTVLEGQARRLNATAAADEALLDEVTALVEWPVVLEAGFEEHFLAVPQECLILTMQQNQKYFPLLDQNGKLMNRFLLVSNLQTEDPSHIIQGNERVLRARLSDAEFFYKQDQKATLESRLPKLTNVVYHNKIGSQAERIERLQSIAAHIAKALGADAAAAERAARLAKADLVTEMVGEFPELQGTMGKYYARLDGETEEITEAVEQHYQPRFAGDNLPEGKIAAAVALADKLETLVGIWGIGLIPTGDKDPYALRRAALGILRMLMQYGLDVNELIQTAFNSFPQGLLNEKTPSETADFMQARLAVLLQNDYPQDIVAAVLAKQPRRLDDLTAKLQAVAAFKQLPEAAALAAANKRVQNLLKKADAELGAVNESLLQQDEEKALFAAAQGLQPKIAAAVAEGNFQTALSELASVKPQVDAFFDGVMVMAEDAAVKQNRLNLLNRLAEQMNAVADIALLGE” the “soluble on expression in E. coli” value was “not soluble”. In the case of “MSILVIGANGGVGSKLVSQLNEEHVDFTAGVRKEDQVKELENKGIKATLIDVEKNSINDLKNIFTDYDKVIFSVGSGGSTGADKTIIVDLDGAVKTIKASKEAGIKHYVMVSTYDSRREAFDASGDLKPYTIAKHYADDYLRTSDLNYTIVHPGSLTDDAGTGKIEADLYFDKAGSIPREDVATVLKEVVTSDGFNNQEFQILSGNHGVKDALKNYESLEHHHHHH”, the “soluble on expression in E. coli” value was “soluble”. With “MRVATFSLVAQDPKTGDLGVAVASKFLAVGAVVPFAEAGVGAIATQSYANPRYGPQGLALLRQGASPEGVLEAFRRTDPGLEKRQFGLVAATGESLTFTGAECHPWAGGVAGKGFAAQGNLLSGSEVVEAMVETFLTAQAPFPERLLLALKAGEEAGGDRRGKQSAALLVVGEGKGYGGLWDRYVDLRVDDHPEPIDELFRLLSLHRLLFERPKGRRPLTEEEVRFFQGVLGRLGLYAGEAHGVFDEATERAFLALIGMENLEERYRGGPEVDEATLSYLKGRYGWS” the “soluble on expression in E. coli” value was “soluble”. For “MGGWMSCAPPIYTPHTNSWTESGWDRTSWWRWSAQRWSGWSFKIVRANKALRVMAKTKMPLVLIPPSPNKPYSKLAINQELHLTPHKKTSPATSSSLKPRPGPRGYLNARLSWRCPTLSRKVRVPTIKVPMVRAPSTKPSKTSSSNNPWPLTPRMRG”, the “soluble on expression in E. coli” value was “soluble”. For “GERLTIEDGLYLYETSDLLGVAQLANKVNSEKNGDHVYFIENMYINPTNVCEANCSFCGFKRKPGQEGAYTMDSETLLRYVEERWNDNIREFHIVGGHNTDVPFDYYLDTIRTLKKNFPQVTVKAYTGAEIEFFSRLAGISMKEVLEELIKAGLDTLPGGGAEILTERYRAKMSPDKASTDQWLEAHEIAHGLGLKTHATMLYGSIESNEERLIHMDRVRQLQDKTNGYMVFIPLAMQPRSVKAGLKRRTSAFDDMRTIAISRLMLDNIDHIKAYWINIGVQLTQMALTFGSDDIHGTLIEERISHSVGALTSQGITRDELIHLIKSANKTPVER”, the “soluble on expression in E. coli” value was “not soluble”. For “MGSDKIHHHHHHMKISNISYFNFRNLENTSIDLSDKINVFYGKNAQGKTSLLEAIYYSSTGISFKTKKTSEMIKYNFDEFISSISYQDYIANNKISVRFKNIAGAKKEFFFNKKRISQTDFYGKINIIAYIPEDIILINGSPKHRRDFFDIEISQIDKEYLTNLKNYDKLLKIRNKYLKENKRNSEEFAIYEKEFIKYASYIIFTRIEYVKSLSIILNLQYRKLFNIAQELNLRYETSLDKTAKVTIEMIQESLKREISQKKYQEDKYKFSLVGPHKDDYKFLLNGHEAKISASQGEKKSIIFSLKLSEIEIIKKNRKENPVVIIDDITSYFDEDRRKSILDFFNKRDIQVLISSTDKLDIEAKNFYVEKGIIKDESNINK”, the “soluble on expression in E. coli” value was “not soluble”. For “MASEQEKTADFGFRTVAKDEKEVMVAEVFHSVAAKYDLMNDLMSFGIHRIWKRFTIECSGVRRNQRVLDLAGGTGDLTAKFSRMVGEGGEVILADINASMLKVGREKLRNKGIIDNINYVQANAEALPFPDDFFDCITISFGLRNVTDKNKALRSMYRVLKPGGRLLVLEFSKPVIKQLSTIYDAYSFHILPRIGEAVASDAGSYRYLAESIRMHPDQETLKGMMSDAGFDSVNYFNLTGGIVALHRGFKFLEHHHHHH”, the “soluble on expression in E. coli” value was “not soluble”. With “GVACKPKEKPSSATSLTDDALMDTVQRRTFNYFWDAAEPNSGLARERYHMDGEYPAGGPEIVTSGGSGFGIMAILAGIDRGYVSREEGLRRMEKIVGFLEKADRFKGAYPHWWNGETGHVQPFGQKDNGGDLVETAFLMQGLLAVHQYYAEGSAEEKKLAGRIDKLWREVDWNWYRHGGQNVLYWHWSPEYGWEMNFPVHGYNECLIMYILAAASPTHGVPAAVYHEGWAQNGAIVSPHKVEGIELHLRYQGGEAGPLFWAQYSFLGLDPVGLKDEYCPSYFNEMRNLTLVNREYCIRNPKHYKGYGPDCWGLTASYSVDGYAAHGPLERDDRGVISPTAALSSIVYTPDQSLQVMHHLYEMGDKVFGPYGFYDAFSETADWYPKRYLAIDQGPIAVMIENYRTGLLWKLFMSHPDVQNGLKKLGFNVKK” the “soluble on expression in E. coli” value was “soluble”. With “MGSDKIHHHHHHLKVLMYSISLAYMIRNLPYASLRAFEAVVRLGSFSAAAGDLGVSQSAVSQHVKSLEEWLGQELLVRGARASKGTRYGTLLAREIDRGLGGISEVCTQIRAASHSDTTVVISCLPGFAFTWLFPRLLRFDLAHPDLSISIATDTGGRPFNPADADIGIRYGHGEFPNLRVDHLMGERLFPVCAPQVAERLTDVASLGQHTLLQDEILNFGSANPSWEYWAEACGVHLPSRARTRRFGQSNLVLQAAIEGLGVALGREPLVLDALTDGRLVRPFTQNVKSPLSYWLVRRKQADDSPKVQEFLKWIKKEAETQPDIPASLNKFA” the “soluble on expression in E. coli” value was “not soluble”. For “MKKLPNIHPGEVLMEEFLIPMEITSYRLAKEIGIPQTRVSEITKGRRRITADTALRLSKYFGNSPKFWLGLQDDYDIEEESQLIAEELKAIKKVVV”, the “soluble on expression in E. coli” value was “not soluble”. In the case of “MGSDKIHHHHHHMTHYKNNIDEAATLINSEGSAWNAINPESVARMRLQNRFKTGLDIAKYTAKIMREDMDNYDKDTSQYTQSLGCWHGFIAQQKMISIKKHLLTTKRRYLYLSGWMVAALRSEFGPLPDQSMHEKTSVAALIKELYTFLRQADARELGGLFRELDSAKESDKAAIQHKIENFETHVVPIIADIDAGFGNEEATYLMAKQMIEAGACCIQLENQVSDVKQCGHQDGKVTVPHVEFLAKINAVRYAFLELGIDDGVIVARTDSLGAGLTQKIAVTKEAGDLGDLYNSFLEVEAVDAAKLENGDVVFKQGGKLVKPARLPNGLFKFRAGTGEERCVLDCITSLQNGADLLWIETEKPHVSQIGGMVNEIRKVVPNAKLVYNNSPSFNWTLNFRQQVFDAMQKAGQDVSAYDRAQLMSVDYDGTELAIQADEKIRTFQSDSAREAGIFHHLITLPTYHTAALSTDNLAKEYFGDQGMLGYVANVQRKEIRQGIACVKHQNMAGSDIGDAHKEYFSGDQALKASGKDNTMNQF”, the “soluble on expression in E. coli” value was “not soluble”. In the case of “GMNNIIVGMGEALWDVLPEGKKIGGAPANFAYHVSQFGFDSRVVSAVGNDELGDEIMEVFKEKQLKNQIERVDYPTGTVQVTLDDEGVPCYEIKEGVAWDNIPFTDELKRLALNTRAVCFGSLAQRNEVSRATINRFLDTMPDIDGQLKIFDINLRQDFYTKEVLRESFKRCNILKINDEELVTISRMFGYPGIDLQDKCWILLAKYNLKMLILTCGINGSYVFTPGVVSFQETPKVPVADTVGAGDSFTAAFCASILNGKSVPEAHKLAVEVSAYVCTQSGAMPELPVILKDRLL”, the “soluble on expression in E. coli” value was “soluble”. In the case of “MGSDKIHHHHHHMNSIFTEENLLAFTTAARFGSFSKAAEELGLTTSAISYTIKRMETGLDVVLFTRSTRSIELTESGRYFFRKATDLLNDFYAIKRRIDTISQGIEARVRICINQLLYTPKHTARLLQVLKKQFPTCQITVTTEVYNGVWDAIINNQANIAIGAPDTLLDGGGIDYTEIGAIRWAFAIAPDHPLAFVPEPIAESQLRLYPNIMVEDTAHTINKKVGWLLHGQESILVPDFNTKCQCQILGEGIGFLPDYMVREAMTQSLLVTRQIHNPRQDSRMLLATQHSATGQVTQWIKKQFAPNGILTGIYQDLLHREN”, the “soluble on expression in E. coli” value was “not soluble”. For “MGSDKIHHHHHHMRNPIHKRLEKFESWKNITFMLCLCERMYPNFYLFCQMTEQMDKAKIYQNILNLVWEYLTVKNAKINFENQLEKLENIIPDVNNYEFFGVVPALDACEGLSELLHAIIAGETLEKAIKISQLSLQTVITLLETQQDKAFSEAELKQSEEIELELDVQWQIYRTLNAHEERDIRLILDLKNELRESRVSNIGIEIAQ”, the “soluble on expression in E. coli” value was “not soluble”.

From the DeepSol protein solubility set
